# Results reported in IntAct's records for PubMed 27857056.
# B1: UDP-glucuronosyltransferase 2B7 (Homo sapiens), P16662 (parent)
# chain: MSVKWTSVILLIQLSFCFSSGNCGKVLVWAAEYSHWMNIKTILDELIQRGHEVTVLASSASILFDPNNSSALKIEIYPTSLTKTELENFIMQQIKRWSDLPKDTFWLYFSQVQEIMSIFGDITRKFCKDVVSNKKFMKKVQESRFDVIFADAIFPCSELLAELFNIPFVYSLSFSPGYTFEKHSGGFIFPPSYVPVVMSELTDQMTFMERVKNMIYVLYFDFWFEIFDMKKWDQFYSEVLGRPTTLSETMGKADVWLIRNSWNFQFPYPLLPNVDFVGGLHCKPAKPLPKEMEDFVQSSGENGVVVFSLGSMVSNMTEERANVIASALAQIPQKVLWRFDGNKPDTLGLNTRLYKWIPQNDLLGHPKTRAFITHGGANGIYEAIYHGIPMVGIPLFADQPDNIAHMKARGAAVRVDFNTMSSTDLLNALKRVINDPSYKENVMKLSRIQHDQPVKPLDRAVFWIEFVMRHKGAKHLRVAAHDLTWFQYHSLDVIGFLLVCVATVIFIVTKCCLFCFWKFARKAKKGKND
# partner: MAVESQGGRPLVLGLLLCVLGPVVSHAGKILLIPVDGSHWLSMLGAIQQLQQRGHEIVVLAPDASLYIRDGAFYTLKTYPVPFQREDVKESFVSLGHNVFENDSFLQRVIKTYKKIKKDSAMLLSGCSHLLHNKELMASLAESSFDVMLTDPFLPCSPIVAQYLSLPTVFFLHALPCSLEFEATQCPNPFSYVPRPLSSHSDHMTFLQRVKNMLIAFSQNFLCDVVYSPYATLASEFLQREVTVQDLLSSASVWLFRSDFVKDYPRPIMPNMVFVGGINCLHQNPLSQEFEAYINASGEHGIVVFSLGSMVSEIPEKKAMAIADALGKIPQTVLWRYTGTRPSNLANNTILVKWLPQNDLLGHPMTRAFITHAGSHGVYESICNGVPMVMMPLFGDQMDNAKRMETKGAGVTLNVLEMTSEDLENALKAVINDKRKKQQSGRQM
# B2: UDP-glucuronosyltransferase 1A9 (Homo sapiens), O60656-1 (parent)
# chain: MACTGWTSPLPLCVCLLLTCGFAEAGKLLVVPMDGSHWFTMRSVVEKLILRGHEVVVVMPEVSWQLGRSLNCTVKTYSTSYTLEDLDREFKAFAHAQWKAQVRSIYSLLMGSYNDIFDLFFSNCRSLFKDKKLVEYLKESSFDAVFLDPFDNCGLIVAKYFSLPSVVFARGILCHYLEEGAQCPAPLSYVPRILLGFSDAMTFKERVRNHIMHLEEHLLCHRFFKNALEIASEILQTPVTEYDLYSHTSIWLLRTDFVLDYPKPVMPNMIFIGGINCHQGKPLPMEFEAYINASGEHGIVVFSLGSMVSEIPEKKAMAIADALGKIPQTVLWRYTGTRPSNLANNTILVKWLPQNDLLGHPMTRAFITHAGSHGVYESICNGVPMVMMPLFGDQMDNAKRMETKGAGVTLNVLEMTSEDLENALKAVINDKSYKENIMRLSSLHKDRPVEPLDLAVFWVEFVMRHKGAPHLRPAAHDLTWYQYHSLDVIGFLLAVVLTVAFITFKCCAYGYRKCLGKKGRVKKAHKSKTH
# partner: B1 partner
# Variants of: B1
# Details: with UGT1A1, P22309-2
row,Variant,effect of a mutation on the interaction
1,MSVKWTSVILLIQLSFCFSSGNCGKVLVWAAEYSHWMNIKTILDELIQRGHEVTVLASSASILFDPNNSSSLKIEIYPTSLTKTELENFIMQQIKRWSDLPKDTFWLYFSQVQEIMSIFGDITRKFCKDVVSNKKFMKKVQESRFDVIFADAIFPCSELLAELFNIPFVYSLSFSPGYTFEKHSGGFIFPPSYVPVVMSELTDQMTFMERVKNMIYVLYFDFWFEIFDMKKWDQFYSEVLGRPTTLSETMGKADVWLIRNSWNFQFPYPLLPNVDFVGGLHCKPAKPLPKEMEDFVQSSGENGVVVFSLGSMVSNMTEERANVIASALAQIPQKVLWRFDGNKPDTLGLNTRLYKWIPQNDLLGHPKTRAFITHGGANGIYEAIYHGIPMVGIPLFADQPDNIAHMKARGAAVRVDFNTMSSTDLLNALKRVINDPSYKENVMKLSRIQHDQPVKPLDRAVFWIEFVMRHKGAKHLRVAAHDLTWFQYHSLDVIGFLLVCVATVIFIVTKCCLFCFWKFARKAKKGKND [A71S],with no effect
2,MSVKWTSVILLIQLSFCFSSGNCGKVLVWAAEYSHWMNIKTILDELIQRGHEVTVLASSASILFDPNNSSALKIEIYPTSLTKTELENFIMQQIKRWSDLPKDTFWLYFSQVQEIMSIFGDITRKFCKDVVSNKKFMKKVQESRFDVIFADAIFPCSELLAELFNIPFVYSLSFSPGYTFEKHSGGFIFPPSYVPVVMSELTDQMTFMERVKNMIYVLYFDFWFEIFDMKKWDQFYSEVLGRPTTLSETMGKADVWLIRNSWNFQFPYPLLPNVDFVGGLHCKPAKPLPKEMEDFVQSSGENGVVVFSLGSMVSNMTEERANVIASALAQIPQKVLWRFDGNKPDTLGLNTRLYKWIPQNDLLGHPKTRAFITHGGANGIYEAIYHGIPMVGIPLFANQPDNIAHMKARGAAVRVDFNTMSSTDLLNALKRVINDPSYKENVMKLSRIQHDQPVKPLDRAVFWIEFVMRHKGAKHLRVAAHDLTWFQYHSLDVIGFLLVCVATVIFIVTKCCLFCFWKFARKAKKGKND [D398N],disrupting interaction strength

# Variants of: B2
# Details: with UGT1A1, P22309-2
row,Variant,effect of a mutation on the interaction
1,MACTGWTSPLPLCVCLLLTCGFAEAGKLLVVPTDGSHWFTMRSVVEKLILRGHEVVVVMPEVSWQLGRSLNCTVKTYSTSYTLEDLDREFKAFAHAQWKAQVRSIYSLLMGSYNDIFDLFFSNCRSLFKDKKLVEYLKESSFDAVFLDPFDNCGLIVAKYFSLPSVVFARGILCHYLEEGAQCPAPLSYVPRILLGFSDAMTFKERVRNHIMHLEEHLLCHRFFKNALEIASEILQTPVTEYDLYSHTSIWLLRTDFVLDYPKPVMPNMIFIGGINCHQGKPLPMEFEAYINASGEHGIVVFSLGSMVSEIPEKKAMAIADALGKIPQTVLWRYTGTRPSNLANNTILVKWLPQNDLLGHPMTRAFITHAGSHGVYESICNGVPMVMMPLFGDQMDNAKRMETKGAGVTLNVLEMTSEDLENALKAVINDKSYKENIMRLSSLHKDRPVEPLDLAVFWVEFVMRHKGAPHLRPAAHDLTWYQYHSLDVIGFLLAVVLTVAFITFKCCAYGYRKCLGKKGRVKKAHKSKTH [M33T],with no effect
2,MACTGWTSPLPLCVCLLLTCGFAEAGKLLVVPMDGSHWFTMRSVVEKLILRGHEVVVVMPEVSWQLGRSLNCTVKTYSTSYTLEDLDREFKAFAHAQWKAQVRSIYSLLMGSYNDIFDLFFSNCRSLFKDKKLVEYLKESSFDAVFLDPFDNCGLIVAKYFSLPSVVFARGILCHYLEEGAQCPAPLSYVPRILLGFSDAMTFKERVRNHIMHLEEHLLCHRFFKNALEIASEILQTPVTEYDLYSHTSIWLLRTNFVLDYPKPVMPNMIFIGGINCHQGKPLPMEFEAYINASGEHGIVVFSLGSMVSEIPEKKAMAIADALGKIPQTVLWRYTGTRPSNLANNTILVKWLPQNDLLGHPMTRAFITHAGSHGVYESICNGVPMVMMPLFGDQMDNAKRMETKGAGVTLNVLEMTSEDLENALKAVINDKSYKENIMRLSSLHKDRPVEPLDLAVFWVEFVMRHKGAPHLRPAAHDLTWYQYHSLDVIGFLLAVVLTVAFITFKCCAYGYRKCLGKKGRVKKAHKSKTH [D256N],with no effect
